Reference: patent US20250019427A1 (BYOMASS, published 2025)

What was measured:
GDF15 = biological target: T1, GDF15 (Homo sapiens (Human), UniProt Q99988 30-308); assay: cell-based or functional assay
T1 sequence: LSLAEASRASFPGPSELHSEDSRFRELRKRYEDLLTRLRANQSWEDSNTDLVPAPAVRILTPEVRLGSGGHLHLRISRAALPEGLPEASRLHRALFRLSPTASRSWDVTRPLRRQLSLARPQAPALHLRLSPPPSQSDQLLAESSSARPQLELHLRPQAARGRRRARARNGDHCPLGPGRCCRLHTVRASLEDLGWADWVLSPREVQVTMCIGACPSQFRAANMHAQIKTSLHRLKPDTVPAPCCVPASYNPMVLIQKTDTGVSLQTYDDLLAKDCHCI

GDF8 = GDF8 (UniProt O14793 267-375); assay: Octet BLI, IgG on tip, avid
Human Activin A Fc = biological target: T2, Human Activin A Fc (human, UniProt P08476 311-426); assay: Octet BLI, IgG on tip, avid
T2 sequence (looked up): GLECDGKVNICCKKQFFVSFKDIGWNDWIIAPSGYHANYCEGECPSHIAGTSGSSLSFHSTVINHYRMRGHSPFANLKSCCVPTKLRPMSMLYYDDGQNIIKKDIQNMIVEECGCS

Human Activin B = biological target: T3, Human Activin B (human, UniProt P09529 293-407); assay: Octet BLI, IgG on tip, avid
T3 construct: Also used for the Activin B ligand of the ActRIIB/SMAD reporter assay, where the species is not restated
T3 sequence (looked up): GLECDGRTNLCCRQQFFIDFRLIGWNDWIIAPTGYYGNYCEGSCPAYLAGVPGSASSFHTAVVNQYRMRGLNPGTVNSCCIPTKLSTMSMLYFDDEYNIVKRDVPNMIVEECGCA

GDF11 = biological target: T4, GDF11 (UniProt O95390 299-407); assay: Octet BLI, IgG on tip, avid
T4 construct: Also the GDF-11 ligand of the ActRIIB/SMAD reporter assay
T4 sequence (O95390 299-407 limits assumed): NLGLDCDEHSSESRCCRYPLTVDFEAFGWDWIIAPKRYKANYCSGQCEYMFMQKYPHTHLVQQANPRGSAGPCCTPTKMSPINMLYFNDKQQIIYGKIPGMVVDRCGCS

GDNF = biological target: T5, GDNF (UniProt P39905 78-211); assay: Octet BLI, IgG on tip, avid
T5 sequence (looked up): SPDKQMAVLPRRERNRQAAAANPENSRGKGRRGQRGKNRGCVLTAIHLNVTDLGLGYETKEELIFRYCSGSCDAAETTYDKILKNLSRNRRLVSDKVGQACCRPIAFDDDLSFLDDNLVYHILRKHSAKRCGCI

Human BMP9 = biological target: T6, Human BMP9 (human, UniProt Q9UK05 320-429); assay: Octet BLI, IgG on tip, avid; P.F. = binder with poor fit
T6 sequence (looked up): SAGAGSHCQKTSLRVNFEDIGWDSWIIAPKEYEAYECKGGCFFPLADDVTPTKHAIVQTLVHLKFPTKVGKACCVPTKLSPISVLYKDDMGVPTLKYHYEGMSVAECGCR

Human BMP10 = biological target: T7, Human BMP10 (human, UniProt O95393 317-424); assay: as above
T7 sequence (looked up): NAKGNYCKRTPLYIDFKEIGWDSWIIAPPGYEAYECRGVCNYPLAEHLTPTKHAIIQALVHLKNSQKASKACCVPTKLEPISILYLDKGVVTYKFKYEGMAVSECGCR

GDF10 [1] = biological target: T8, GDF10 (UniProt P55107 369-478); assay: as above
T8 sequence (looked up): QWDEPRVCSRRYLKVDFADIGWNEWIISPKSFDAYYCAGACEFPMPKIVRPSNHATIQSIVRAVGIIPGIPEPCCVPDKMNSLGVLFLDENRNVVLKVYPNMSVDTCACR

GDF10 [2] = biological target: T8, GDF10; assay: Octet BLI, IgG on tip, avid
Rat GDF-15 Fc = biological target: T9, Rat GDF-15 Fc (rat, UniProt Q9Z0J6 189-303, limits assumed); assay: Octet BLI, IgG on AHC tip, avid
T9 sequence (looked up): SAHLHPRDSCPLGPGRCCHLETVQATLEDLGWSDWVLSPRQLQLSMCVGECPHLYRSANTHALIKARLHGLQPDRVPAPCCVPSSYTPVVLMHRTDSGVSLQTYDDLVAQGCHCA
Procedure: (§1) Briefly, ForteBio affinity measurements were performed by loading IgGs on-line onto AHC sensors. Sensors were equilibrated off-line in assay buffer for 30 min and then monitored on-line for 60 seconds for baseline establishment. Sensors with loaded IgGs were exposed to 100 nM antigen for 3 minutes, and afterwards were transferred to assay buffer for 3 min for off-rate measurement. All kinetics were analyzed using the 1:1 binding model.

Cyno GDF15 Fc = biological target: T10, Cyno GDF15 Fc (cyno, UniProt G7PWZ3 193-308); assay: Octet BLI, IgG on AHC tip, avid
T10 construct: also called cyno GDF15-Fc fusion
T10 sequence: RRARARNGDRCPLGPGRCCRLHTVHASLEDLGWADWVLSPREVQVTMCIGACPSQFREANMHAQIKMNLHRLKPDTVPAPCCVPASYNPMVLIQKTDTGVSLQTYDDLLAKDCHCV
Procedure: as §1

Mouse GDF15 Fc = biological target: T11, Mouse GDF15 Fc (mouse, UniProt Q9Z0J7 189-303, limits assumed); assay: Octet BLI, IgG on AHC tip, avid
T11 construct: also called mouse GDF15Fc fusion
T11 sequence (looked up): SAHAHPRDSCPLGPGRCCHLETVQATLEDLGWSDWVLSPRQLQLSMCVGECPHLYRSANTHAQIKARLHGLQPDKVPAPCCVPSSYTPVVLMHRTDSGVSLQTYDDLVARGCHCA
Procedure: as §1

B1: Clone A IgG (antibody, V domains shown)
VH: QVQLQESGPGLVKPSQTLSLTCTVSGGSITSGGSYWSWIRQHPGKGLEWIGAIVYSGSTYYNPSLKSRVTISVDTSKNQFSLKLSSVTAADTAVYYCARGVEYQHFDYWGQGTLVTVSS
VL: not shown
notes: IgG format
GDF15 - GFRAL RET pERK IC50 (pM) (GDF15): 102 pM
GDF15 - GFRAL-RET Luciferase IC50 (pM) (GDF15): 75 pM
binding result (GDF8): no binding (tested: 100 nM)
Kd (Human Activin A Fc): 7.34 nM
binding result (Human Activin B): no binding (tested: 100 nM)
binding result (GDF11): no binding (tested: 100 nM)
binding result (GDNF): no binding (tested: 100 nM)
binding result (Human BMP9): binds
binding result (Human BMP10): binds
binding result (GDF10 [1]): binds

B2: Clone G IgG (antibody, V domains shown)
VH: QVQLVQSGAEVKKPGSSVKVSCKASGGTFQGYAISWARQAPGQGLEWMGGIIPPYATANYAQKFQGRVTITADESTSTAYMELSSLRSEDTAVYYCARGVGELHLDVWGQGTMVTVSS
VL: not shown
notes: IgG format
GDF15 - GFRAL RET pERK IC50 (pM) (GDF15): 66.7 pM
GDF15 - GFRAL-RET Luciferase IC50 (pM) (GDF15): 97.1 pM
binding result (GDF8): no binding (tested: 100 nM)
binding result (Human Activin A Fc): no binding (tested: 100 nM)
binding result (Human Activin B): no binding (tested: 100 nM)
binding result (GDF11): no binding (tested: 100 nM)
Kd (GDF10 [2]): 36.8 nM
binding result (GDNF): no binding (tested: 100 nM)
binding result (Human BMP9): binds
binding result (Human BMP10): binds
Kd (Rat GDF-15 Fc): 1.01 nM
Kd (Cyno GDF15 Fc): 0.107 nM
Kd (Mouse GDF15 Fc): 0.191 nM
